From patent publication US20150044213A1 (published 2015)
Values joined by “and” are separate entries in the source; they are usually repeats but may differ in a detail not shown here. Equal entries are not always repeated.

Experiments:
[1] = molecular target: T1, Recombinant human VEGF165 (human, UniProt P15692-4 27-191); test: SPR (BIAcore T100), VEGF165 on CM4 chip, 1:1 Langmuir model; scFv released from hexPLA formulation, release sample at 3 d
T1 construct: Immobilized on a CM4 sensor chip by amine coupling (about 500 RU)
T1 sequence (P15692 other isoform, or with tags, fused parts or gaps limits assumed): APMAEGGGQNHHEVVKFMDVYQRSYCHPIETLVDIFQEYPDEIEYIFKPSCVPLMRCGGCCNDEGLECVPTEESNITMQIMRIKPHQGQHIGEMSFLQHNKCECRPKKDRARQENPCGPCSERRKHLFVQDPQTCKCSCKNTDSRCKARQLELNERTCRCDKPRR
Protocol: (§1) The affinity of the released ESBA903 monomer toward human VEGF was measured using surface plasmon resonance analysis in comparison to a fresh ESBA903 reference. For evaluation of the binding kinetics, surface plasmon resonance measurements using a BIAcore T100 were performed. Carboxymethylated dextran biosensor chips (CM4, GE HealthCare, Uppsala, Sweden) were activated with N-ethyl-N′-(3-dimethylaminopropyl) carbodiimide hydrochloride and N-hydroxysuccinimide according to the supplier's instructions. Recombinant human VEGF₁₆₅ (PeproTech EC Ltd., London, UK) was immobilized on a CM4 sensor chip using a standard amine-coupling procedure to achieve a response of approximately 500 resonance units. 2-fold serial dilutions (2.5-20 nM) of ESBA903 standard and formulation samples in HBS-EP buffer (10 mM HEPES, 150 mM NaCl, 3 mM EDTA, and 0.05% surfactant P20, pH 7.4) were injected into the flow cells at a flow rate of 30 μL/min for 5 minutes. Dissociation of the anti-VEGF scFv from the VEGF on the CM4 chip was allowed to proceed for 10 minutes. After each injection cycle, surfaces were regenerated with 2 injections of 100 mM NaOH.
(§2) The apparent dissociation (kd) and association (kₐ) rate constants and the apparent dissociation equilibrium constant (KD) were calculated with BIAcore T100 evaluation Software version 2.0.1 using a one-to-one Langmuir binding model (Biacore Inc., Uppsala, Sweden).

[2] = molecular target: T1, Recombinant human VEGF165; test: SPR (BIAcore T100), VEGF165 on CM4 chip, 1:1 Langmuir model; scFv released from hexPLA formulation, release sample at 4 w
Protocol: as §1, §2

[3] = molecular target: T1, Recombinant human VEGF165; test: SPR (BIAcore T100), VEGF165 on CM4 chip, 1:1 Langmuir model; scFv released from hexPLA formulation, release sample at 14 w
Protocol: as §1, §2

[4] = molecular target: T1, Recombinant human VEGF165; test: SPR (BIAcore T100), VEGF165 amine-coupled on CM4 chip, scFv 2.5-20 nM injected, 1:1 Langmuir model; fresh reference, time 0
Protocol: as §1, §2

B1: ESBA903 (scFv)
scFv: EIVMTQSPSTLSASVGDRVIITCQASEIIHSWLAWYQQKPGKAPKLLIYLASTLASGVPSRFSGSGSGAEFTLTISSLQPDDFATYYCQNVYLASTNGANFGQGTKLTVLGGGGGSGGGGSGGGGSGGGGSEVQLVESGGGLVQPGGSLRLSCTASGFSLTDYYYMTWVRQAPGKGLEWVGFIDPDDDPYYATWAKGRFTISRDTSKNTVYLQMNSLRAEDTAVYYCAGGDHNSGWGLDIWGQGTLVTVSS
notes: Monomeric scFv (about 25 kDa); same protein in all samples; also called humanized antibody-fragment ESBA903; humanized VEGF-antibody fragment ESBA903
Q: What does the source list for B1?
A: Kd [1]: 0.0594 nM and 0.0685 nM and 0.0489 nM; koff [1]: 2.77e-05 s⁻¹ and 3e-05 s⁻¹ and 2.59e-05 s⁻¹; kon [1]: 465000 M⁻¹ s⁻¹ and 439000 M⁻¹ s⁻¹ and 529000 M⁻¹ s⁻¹; Kd [2]: 0.0643 nM and 0.0521 nM and 0.0552 nM; koff [2]: 3.56e-05 s⁻¹ and 3.03e-05 s⁻¹ and 2.34e-05 s⁻¹; kon [2]: 554000 M⁻¹ s⁻¹ and 582000 M⁻¹ s⁻¹ and 424000 M⁻¹ s⁻¹; Kd [3]: 0.0762 nM and 0.066 nM and 0.0826 nM; koff [3]: 3.11e-05 s⁻¹ and 2.78e-05 s⁻¹ and 3.37e-05 s⁻¹; kon [3]: 407000 M⁻¹ s⁻¹ and 421000 M⁻¹ s⁻¹ and 408000 M⁻¹ s⁻¹; Kd [4]: 0.0256 nM; koff [4]: 2.45e-05 s⁻¹; kon [4]: 956000 M⁻¹ s⁻¹
